The target of experiment [1] is C30-His6 (short form of SafA made by internal translation of the safA mRNA) (Bacillus subtilis). In words: SEC-SAXS; SEC peak fractions of C30; synchrotron SEC-SAXS at BM29 ESRF with in-line HPLC; in the absence of Tgl. (Size exclusion chromatography separates by hydrodynamic size, large species first.)
For experiment [2] the target is unchanged. In words: SDS-PAGE of the purified protein (species resistant to denaturation); purified C30 without Tgl or at time 0 of the cross-linking assays; 37°C, Tris-HCl 0.1 M, pH 8.0; 10% SDS-PAGE, Coomassie.
Experiment [3] has the same target. In words: SEC; purified C30-His6 applied to a size exclusion column at 3.5 mg/ml; eluted as a main single sharp peak; mass by elution position.

With “C30-His6 (short form of SafA made by internal translation of the safA mRNA) (natural protein)”, the values for the stoichiometry N in experiment [1], in experiment [2] and in experiment [3] were 6, 2 and 6, respectively.

(Values after article PMC6490927.)
